# Assay results taken from patent US6635738.
# B1: Recombinant human ICE (interleukin 1β converting enzyme) (protein)
# chain: NPAMPTSSGSEGNVKLCSLEEAQRIWKQKSAEIYPIMDKSSRTRLALIICNEEFDSIPRRTGAEVDITGMTMLLQNLGYSVDVKKNLTASDMTTELEAFAHRPEHKTSDSTFLVFMSHGIREGICGKKHSEQVPDILQLNAIFNMLNTKNCPSLKDKPKVIIIQACRGDSPGVVWFKDSVGVSGNLSLPTTEEFEDDAIKKAHIEKDFIAFCSSTPDNVSWRHPTMGSVFIGRLIEHMQEYACSCDVEEIFRKVRFSFEQPDGRAQMPTTERVTLTRCFYLFPGH
# Experiments:
# [1] = target: IL-1 receptor on PC12 cells; test: cell-based or functional assay
# [2] = target: IL-1β in PC12 cell cultures; test: cell-based or functional assay
# [3] = target: Recombinant human pro-IL-1β, P01584
# Recombinant human pro-IL-1β, P01584, sequence (P01584 whole entry, looked up): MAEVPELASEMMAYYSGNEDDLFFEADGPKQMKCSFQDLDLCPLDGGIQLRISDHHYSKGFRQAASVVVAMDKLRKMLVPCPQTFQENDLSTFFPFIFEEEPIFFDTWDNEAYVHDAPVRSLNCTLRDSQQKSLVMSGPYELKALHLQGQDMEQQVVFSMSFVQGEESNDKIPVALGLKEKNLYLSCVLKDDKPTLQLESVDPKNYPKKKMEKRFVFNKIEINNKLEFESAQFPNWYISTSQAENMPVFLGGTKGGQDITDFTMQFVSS
molecule,measurement,setting,value
IL-1 receptor antagonist (rmIL-1Ra) (from UniProt P25085 27-178) (ligand),suppression of death of V-ASOD1 treated (SOD1 deficient) PC12 cells; antagonist concentration used,[1],100 ng/mL
Blocking monoclonal hamster anti-mouse IL-1β antibody (Genzyme),suppression of death of V-ASOD1 treated (SOD1 deficient) PC12 cells; antibody concentration used,[2],30 µg/mL
B1,cleavage of pro-IL-1β by ICE in vitro (SDS-PAGE and immunoblot),[3],There is some cleavage in the presence of the inhibitor but much less than seen with ICE alone
